Publication PMC4333214
Values joined by “and” are separate entries in the source; they are usually repeats but may differ in a detail not shown here. Identical values can stand only once.

Molecular target: FLβ.AP2 (AP2 comprising full-length β2, μ2 and σ2 subunits and the α-trunk domain) (UniProt P63010)
Assay: co-sedimentation

clathrin, sequence (Q00610 whole entry, looked up): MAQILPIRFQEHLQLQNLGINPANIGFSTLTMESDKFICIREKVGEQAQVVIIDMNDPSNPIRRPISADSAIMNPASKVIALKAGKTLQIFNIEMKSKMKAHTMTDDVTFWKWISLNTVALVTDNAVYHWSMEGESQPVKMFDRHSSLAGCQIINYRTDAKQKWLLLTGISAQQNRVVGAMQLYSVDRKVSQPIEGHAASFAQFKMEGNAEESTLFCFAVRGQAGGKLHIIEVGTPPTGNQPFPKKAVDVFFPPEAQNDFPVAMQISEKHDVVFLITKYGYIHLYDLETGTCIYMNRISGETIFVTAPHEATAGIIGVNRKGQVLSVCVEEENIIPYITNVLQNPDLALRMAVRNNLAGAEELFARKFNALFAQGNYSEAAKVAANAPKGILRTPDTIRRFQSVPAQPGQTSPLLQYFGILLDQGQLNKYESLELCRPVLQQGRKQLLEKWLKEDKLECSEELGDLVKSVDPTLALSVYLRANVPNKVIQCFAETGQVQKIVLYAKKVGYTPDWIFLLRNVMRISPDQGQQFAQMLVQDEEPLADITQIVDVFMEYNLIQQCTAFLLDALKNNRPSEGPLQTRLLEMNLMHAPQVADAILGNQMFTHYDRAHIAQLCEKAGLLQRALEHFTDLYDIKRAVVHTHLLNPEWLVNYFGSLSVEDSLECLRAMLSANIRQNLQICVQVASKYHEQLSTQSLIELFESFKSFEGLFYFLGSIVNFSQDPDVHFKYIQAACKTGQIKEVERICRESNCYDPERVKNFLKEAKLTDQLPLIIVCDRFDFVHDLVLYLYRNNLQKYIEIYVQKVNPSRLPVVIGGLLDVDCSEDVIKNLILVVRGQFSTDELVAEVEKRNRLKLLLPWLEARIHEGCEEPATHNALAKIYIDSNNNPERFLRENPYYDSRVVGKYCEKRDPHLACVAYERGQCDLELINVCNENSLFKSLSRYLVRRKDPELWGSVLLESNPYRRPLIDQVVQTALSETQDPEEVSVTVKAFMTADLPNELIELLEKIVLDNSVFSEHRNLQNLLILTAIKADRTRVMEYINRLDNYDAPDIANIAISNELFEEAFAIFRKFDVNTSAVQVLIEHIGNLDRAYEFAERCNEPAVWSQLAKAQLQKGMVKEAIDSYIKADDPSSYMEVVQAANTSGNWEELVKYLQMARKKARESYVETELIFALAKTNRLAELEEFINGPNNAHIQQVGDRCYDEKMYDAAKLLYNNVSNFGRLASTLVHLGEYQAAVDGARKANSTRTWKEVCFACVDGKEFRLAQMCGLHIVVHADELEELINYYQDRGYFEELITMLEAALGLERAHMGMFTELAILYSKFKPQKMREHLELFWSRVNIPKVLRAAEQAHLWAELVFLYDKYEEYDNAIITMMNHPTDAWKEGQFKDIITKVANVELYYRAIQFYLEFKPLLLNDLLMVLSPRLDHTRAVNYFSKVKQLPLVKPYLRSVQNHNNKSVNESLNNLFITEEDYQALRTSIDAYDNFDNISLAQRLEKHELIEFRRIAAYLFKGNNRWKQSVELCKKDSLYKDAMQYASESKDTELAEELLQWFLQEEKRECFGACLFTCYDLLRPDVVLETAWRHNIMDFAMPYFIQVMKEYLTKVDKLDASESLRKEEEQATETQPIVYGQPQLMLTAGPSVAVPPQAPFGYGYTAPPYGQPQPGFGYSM

- ratio of clathrin to AP2 in the liposome pellets: 26.5% and 5.2%
Substance: clathrin (from UniProt Q00610 1-1675) (complex)
